Data taken from JP2010254663A.
Like-named read-outs stand apart in the source and are kept apart here.

Assays:
[1] = molecular target: HAMA血清タイプ1(Roche製、品番:1767275); assay: forward sandwich ELISA with anti-hCEA antibodies and HAMA serum type 1, inhibitor at 1 ug/ml
[2] = molecular target: HAMA血清タイプ1(Roche製、品番:1767275); assay: as above; remark: listed apart in the source

## MAK33−IgG1(Roche製、品番:1200941) (antibody)
[1]
  HAMA抑制率: 51%
[2]
  HAMA抑制率: 69%

## マウスIgG(CHEMICON製、品番:PP54) (antibody)
[1]
  HAMA抑制率: 39%
[2]
  HAMA抑制率: 61%

## Heterophilic Blocking Reagent1(SCANTIBODIES LABORATORY，INC.製、品番:3KC534−075)
[2]
  HAMA抑制率: 68%
